Measured values: patent US20110166064A1

Target: Insulin-like Growth Factor I Receptor (IGF-1R) (UniProt P08069)
Assay: competitive displacement of 125I-IGF-I from IGF-1R, FIG. 9B

Insulin-like Growth Factor I Receptor (IGF-1R), sequence (P08069 31-1367 limits assumed): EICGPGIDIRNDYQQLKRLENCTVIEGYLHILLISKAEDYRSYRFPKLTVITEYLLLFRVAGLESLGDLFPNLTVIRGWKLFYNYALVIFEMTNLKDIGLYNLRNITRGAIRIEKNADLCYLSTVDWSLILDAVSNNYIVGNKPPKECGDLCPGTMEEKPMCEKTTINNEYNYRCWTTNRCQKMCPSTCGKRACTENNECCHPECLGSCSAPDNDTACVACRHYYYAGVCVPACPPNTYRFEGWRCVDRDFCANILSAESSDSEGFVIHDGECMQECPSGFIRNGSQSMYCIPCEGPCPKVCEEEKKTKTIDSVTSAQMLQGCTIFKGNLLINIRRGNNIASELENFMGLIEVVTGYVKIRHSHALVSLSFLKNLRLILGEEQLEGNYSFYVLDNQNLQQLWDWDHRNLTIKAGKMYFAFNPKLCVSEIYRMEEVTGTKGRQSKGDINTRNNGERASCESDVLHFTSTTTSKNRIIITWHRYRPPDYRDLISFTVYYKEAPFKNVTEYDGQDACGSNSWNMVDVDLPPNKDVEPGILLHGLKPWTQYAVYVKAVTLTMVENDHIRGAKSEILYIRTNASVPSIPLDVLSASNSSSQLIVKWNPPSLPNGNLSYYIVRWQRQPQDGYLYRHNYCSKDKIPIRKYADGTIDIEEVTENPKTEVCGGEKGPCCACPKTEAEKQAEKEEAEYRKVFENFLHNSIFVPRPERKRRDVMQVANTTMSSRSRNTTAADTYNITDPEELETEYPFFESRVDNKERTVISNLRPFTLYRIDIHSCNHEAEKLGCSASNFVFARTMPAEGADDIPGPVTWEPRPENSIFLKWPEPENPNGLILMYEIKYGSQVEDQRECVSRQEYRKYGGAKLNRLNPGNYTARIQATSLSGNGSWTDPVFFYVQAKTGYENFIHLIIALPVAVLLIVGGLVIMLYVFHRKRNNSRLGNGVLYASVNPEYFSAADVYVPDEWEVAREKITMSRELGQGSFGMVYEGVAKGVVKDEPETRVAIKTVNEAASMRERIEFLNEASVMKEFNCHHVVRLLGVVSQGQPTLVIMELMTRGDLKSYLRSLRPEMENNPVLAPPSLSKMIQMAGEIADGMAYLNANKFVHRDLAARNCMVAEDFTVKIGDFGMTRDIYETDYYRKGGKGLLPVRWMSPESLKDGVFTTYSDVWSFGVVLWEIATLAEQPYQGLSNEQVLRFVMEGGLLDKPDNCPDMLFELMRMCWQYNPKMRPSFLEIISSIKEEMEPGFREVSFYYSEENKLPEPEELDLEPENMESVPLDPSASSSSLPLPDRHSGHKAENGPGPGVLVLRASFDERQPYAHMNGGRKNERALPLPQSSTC

Q: For “4Cl-Phe^B24-KP-insulin (ligand; para-monochloro-phenylalanine (4Cl-Phe) at B24; other documents disagree on this pair)”, which fold reduction of cross-binding relative to KP-insulin or wild-type insulin is on record?
A: 3 fold
